In publication PMC6686035:

Tests used:
[1] = biological target: CsrA-His6 (Escherichia coli) (UniProt P69913); assay: EMSA; conditions: EMSA: 0.5 nM RNA, 10 mM MgCl2, 100 mM KCl, 32.5 ng yeast RNA, 20 mM DTT, 7.5% glycerol, 4 U SUPERasin, 37 C 30 min (pH not stated), footprint: 2 nM RNA
[2] = biological target: CsrA-His6 (Escherichia coli) (UniProt P69913); assay: RNase T1 footprinting; conditions: EMSA: 0.5 nM RNA, 10 mM MgCl2, 100 mM KCl, 32.5 ng yeast RNA, 20 mM DTT, 7.5% glycerol, 4 U SUPERasin, 37 C 30 min (pH not stated), footprint: 2 nM RNA

Chain of CsrA-His6 (Escherichia coli) (P69913 whole entry): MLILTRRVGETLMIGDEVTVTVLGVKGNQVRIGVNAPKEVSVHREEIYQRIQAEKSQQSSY

| Substance | Kd [1] [nM] | also measured |
| --- | --- | --- |
| bfr EMSA transcript | – | Kd ([1]; 10 mM Mg2+, apparent KD, cooperative equation, single shift): 27 nM |
| GAAGAUCAUCGUCAGAAUUGACUCCACGAUCACAUUUCGGACCGGCAGAAAGGAAUUAUUCUGCAAACAGUAAUUAUGGUGUUUUGAUUUAUCUUGCACCUCUCCACUUCUGGAUAUAAGGAUAUUAGGU [ftnB EMSA transcript] | 13 | – |
| GGGAUCAUCGUCAGAAUUGACUCCACGAUCACAUUUCGGACCGGCAGAAAGGAAUUAUUCUGCAAACAGUAAUUAUGGUGUUUUGAUUUAUCUUGCACCUCUCCACUUCUGGAUAUAAGGAUAUUAGGUAUGGCAACCGCUGGAAUGCUUCUCAAGGAUCC [ftnB footprint RNA (+1 to +152)] | – | binding [2]: binds |
| GGGUGGAAGCGAAGGAGUCAAAAAAUGAAAGGUGAUACUAAAGUUAUAAAUUAUCUCAACAAACUGUUGGGAAAUGAGCUUGU [bfr EMSA transcript] | 27 | – |
| ftnB EMSA transcript | 13 | – |
